Assay results as given in US20050238665A1.

Target: Crotalus durissus terrificus venom
Test: ELISA on C.d.t. venom (5 µg/ml coat)

Q: What does the source list for “preimmune IgY (chicken egg yolk) (antibody)”?
A: absorbance at dilution 1:5: < 0 absorbance; absorbance at dilution 1:25: 0 absorbance; absorbance at dilution 1:125: 0.003 absorbance; absorbance at dilution 1:625: 0 absorbance; absorbance at dilution 1:3125: 0.002 absorbance; absorbance, undiluted: 0.003 absorbance
